According to US20170081398A1:
Where “and” joins values, the source holds several entries; their conditions need not be identical. Equal entries are not always repeated.

What was measured:
[1] = molecular target: human angiopoietin-2 (human) (UniProt O15123); assay: HTRF; competition with huTie-2-Fc-APC for biotinylated hAng2
[2] = molecular target: human angiopoietin-1 (human) (UniProt Q15389); assay: HTRF; competition with huTie-2-Fc-APC for biotinylated hAng1
mouse Tie2 (mouse) = mouse Tie2 (mouse) (UniProt Q02858); assay: cell-based or functional assay
Chain of mouse Tie2 (mouse) (Q02858 23-1122): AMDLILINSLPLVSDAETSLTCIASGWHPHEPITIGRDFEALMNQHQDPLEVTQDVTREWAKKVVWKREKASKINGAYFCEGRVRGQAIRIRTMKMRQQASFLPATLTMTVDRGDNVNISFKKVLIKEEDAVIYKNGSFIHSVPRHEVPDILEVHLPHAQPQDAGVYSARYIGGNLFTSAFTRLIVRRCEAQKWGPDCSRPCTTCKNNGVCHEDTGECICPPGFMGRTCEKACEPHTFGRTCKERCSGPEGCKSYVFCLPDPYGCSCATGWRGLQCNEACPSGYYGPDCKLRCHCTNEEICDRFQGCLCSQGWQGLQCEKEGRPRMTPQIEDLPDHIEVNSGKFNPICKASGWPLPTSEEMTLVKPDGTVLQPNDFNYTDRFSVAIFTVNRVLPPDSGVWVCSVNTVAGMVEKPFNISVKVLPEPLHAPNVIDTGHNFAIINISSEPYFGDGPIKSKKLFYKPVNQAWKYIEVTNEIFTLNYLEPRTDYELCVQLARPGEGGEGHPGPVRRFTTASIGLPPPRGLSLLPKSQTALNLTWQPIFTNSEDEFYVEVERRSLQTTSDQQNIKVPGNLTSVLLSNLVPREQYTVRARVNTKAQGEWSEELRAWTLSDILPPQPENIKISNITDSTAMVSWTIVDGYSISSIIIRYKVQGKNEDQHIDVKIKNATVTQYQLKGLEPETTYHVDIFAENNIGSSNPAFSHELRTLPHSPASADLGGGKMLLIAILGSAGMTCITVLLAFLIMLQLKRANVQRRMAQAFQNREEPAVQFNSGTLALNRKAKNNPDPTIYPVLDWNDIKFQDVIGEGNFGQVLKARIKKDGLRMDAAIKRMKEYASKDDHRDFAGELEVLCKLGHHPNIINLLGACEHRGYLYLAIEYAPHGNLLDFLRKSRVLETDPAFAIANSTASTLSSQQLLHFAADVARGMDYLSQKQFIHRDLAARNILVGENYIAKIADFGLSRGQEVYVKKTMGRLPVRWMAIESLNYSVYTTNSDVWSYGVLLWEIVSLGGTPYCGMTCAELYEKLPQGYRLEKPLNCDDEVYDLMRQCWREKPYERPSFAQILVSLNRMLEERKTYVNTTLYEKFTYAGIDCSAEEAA

Chain of human angiopoietin-1 (human) (Q15389 20-498 limits assumed): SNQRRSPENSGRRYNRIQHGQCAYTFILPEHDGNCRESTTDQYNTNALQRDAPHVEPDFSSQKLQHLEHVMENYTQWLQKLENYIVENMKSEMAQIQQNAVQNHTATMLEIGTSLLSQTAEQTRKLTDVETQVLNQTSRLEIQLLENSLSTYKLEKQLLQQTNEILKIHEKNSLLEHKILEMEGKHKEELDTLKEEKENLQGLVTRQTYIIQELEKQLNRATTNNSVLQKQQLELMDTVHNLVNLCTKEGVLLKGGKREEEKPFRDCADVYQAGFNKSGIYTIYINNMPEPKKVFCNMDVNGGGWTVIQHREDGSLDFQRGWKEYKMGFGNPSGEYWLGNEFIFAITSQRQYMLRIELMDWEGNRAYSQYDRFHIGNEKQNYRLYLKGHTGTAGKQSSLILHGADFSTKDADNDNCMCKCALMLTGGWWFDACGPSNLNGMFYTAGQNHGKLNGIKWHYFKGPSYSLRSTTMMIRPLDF
Chain of human angiopoietin-2 (human) (O15123 19-496 limits assumed): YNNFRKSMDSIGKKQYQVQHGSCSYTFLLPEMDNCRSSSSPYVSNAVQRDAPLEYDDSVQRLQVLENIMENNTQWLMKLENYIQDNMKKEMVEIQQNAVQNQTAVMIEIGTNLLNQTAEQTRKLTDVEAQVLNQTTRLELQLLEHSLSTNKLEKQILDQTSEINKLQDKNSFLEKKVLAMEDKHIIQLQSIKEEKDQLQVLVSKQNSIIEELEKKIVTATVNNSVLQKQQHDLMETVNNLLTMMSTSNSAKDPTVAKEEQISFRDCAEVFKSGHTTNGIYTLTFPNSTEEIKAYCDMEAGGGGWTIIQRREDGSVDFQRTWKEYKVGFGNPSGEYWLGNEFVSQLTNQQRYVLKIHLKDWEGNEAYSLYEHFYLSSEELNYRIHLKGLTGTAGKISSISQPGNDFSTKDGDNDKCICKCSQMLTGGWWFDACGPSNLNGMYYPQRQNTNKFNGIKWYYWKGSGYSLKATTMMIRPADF

| Substance | IC90/IC50 [1] | IC90/IC50 [2] | Tie2 phosphorylation in mouse lung endothelium (immunoprecipitation-Western blot) (mouse Tie2 (mouse)) [fold] |
| --- | --- | --- | --- |
| AMG 386 (Fc fusion) | 4.1 and 4.4 | 41 and 71 |  |
| recombinant Ang1 (R&D Systems Inc.) (ligand) |  |  | 5 |
